Experimental data as given in PMC12203944.

Assays:
[1] = target: c-Myc^1-331 labelled at the four N-terminal sites in the MB0–MBII region (fluorescence anisotropy); assay: fluorescence polarisation; steady-state fluorescence anisotropy of the A488 dye on c-Myc in the donor-only samples with unlabeled AurA, same plates as for the lifetime measurements; excitation 470 nm, emission 516 nm; fit to a 1:1 binding model
[2] = target: c-Myc^1-88 labelled with A488 on C70, phosphorylated on T58 and S62 (UniProt P01106); assay: as above
[3] = target: c-Myc^1-331 labelled at the four N-terminal sites in the MB0–MBII region (FRET); assay: FRET or BRET; time-resolved fluorescence lifetime plate reader; Alexa 488-labelled c-Myc constant at 50 nM, DABCYL-labelled AurA titrated 0-12.8 uM; 384-well plates, room temperature, at least 30 min
[4] = target: c-Myc^1-331 single-cysteine construct C70, labelled with Alexa 488, phosphorylated on T58 and S62; assay: as above

Row | Molecule | Kd [1] | fold enhancement of binding affinity over unphosphorylated c-Myc 1-88 [2] | Kd [3] | fold enhancement of binding affinity over unphosphorylated c-Myc 1-331 [4]
1 | Aurora A kinase domain (AurA^122-403), unlabeled (from UniProt O14965 122-403) (domain or fragment) | 2000 to 3000 nM | 3 fold | – | –
2 | Aurora A kinase domain (AurA^122-403), cysteine-lite, labelled with dabcyl acceptor (domain or fragment, DABCYL-Plus C2 maleimide on the cysteine introduced by L225C) ESKKRQWALEDFEIGRPLGKGKFGNVYLAREKQSKFILALKVLFKAQLEKAGVEHQLRREVEIQSHLRHPNILRLYGYFHDATRVYLILEYAPLGTVYRELQKCSKFDEQRTATYITELANALSYCHSKRVIHRDIKPENLLLGSAGELKIADFGWSVHAPSSRRTTLSGTLDYLPPEMIEGRMHDEKVDLWSLGVLCYEFLVGKPPFEANTYQETYKRISRVEFTFPDFVTEGARDLISRLLKHNPSQRPMLREVLEHPWITANSSKPSNSQNKESASKQS | – | – | 2000 to 3000 nM | 2 fold
